Consider 49 molecules from US20160368965A1 (IMMATICS BIOTECHNOLOGIES, published 2016).

The target in this assay is T1, HLA-A*02:01 (human).
T1 construct: the tested peptide takes its place; also called peptide-receptive MHC molecules; MHC class I
Briefly: UV-ligand exchange, anti-β2m ELISA; grade of peptide exchange yield. The text has this: Candidate peptides for T cell based therapies according to the present invention were further tested for their MHC binding capacity (affinity). The individual peptide-MHC complexes were produced by UV-ligand exchange, where a UV-sensitive peptide is cleaved upon UV-irradiation, and exchanged with the peptide of interest as analyzed. Only peptide candidates that can effectively bind and stabilize the peptide-receptive MHC molecules prevent dissociation of the MHC complexes. To determine the yield of the exchange reaction, an ELISA was performed based on the detection of the light chain (β2m) of stabilized MHC complexes. The assay was performed as generally described in Rodenko et al. (Rodenko et al., 2006).
96 well MAXISorp plates (NUNC) were coated over night with 2 ug/ml streptavidin in PBS at room temperature, washed 4× and blocked for 1h at 37° C. in 2% BSA containing blocking buffer. Refolded HLA-A*02:01/MLA-001 monomers served as standards, covering the range of 15-500 ng/ml. Peptide-MHC monomers of the UV-exchange reaction were diluted 100 fold in blocking buffer. Samples were incubated for 1 h at 37° C., washed four times, incubated with 2 ug/ml HRP conjugated anti-β2m for 1h at 37° C., washed again and detected with TMB solution that is stopped with […]. Absorption was measured at 450 nm. Candidate peptides that show a high exchange yield (preferably higher than 50%, most preferred higher than 75%) are generally preferred for a generation and production of antibodies or fragments thereof, and/or T cell receptors or fragments thereof, as they show sufficient avidity to the MHC molecules and prevent dissociation of the MHC complexes.
For orientation: In an ELISA, binding on a coated surface is turned into a signal by an enzyme label.
The molecule ALYEKDNTYL [ALYEKDNTYL (SEQ ID NO: 129)] returned a peptide exchange yield of 50 to 75%.

In turn, VLDEFYSSL [VLDEFYSSL (SEQ ID NO: 28)] gave a peptide exchange yield of 50 to 75%.

Molecule KLSENAGIQSL [KLSENAGIQSL (SEQ ID NO: 24)] returned a peptide exchange yield of 20 to 50%.

For the molecule SLLDLHTKV [SLLDLHTKV (SEQ ID NO: 159)], the peptide exchange yield is 50 to 75%.

FIIDNPQDLKV [FIIDNPQDLKV (SEQ ID NO: 14)] registered a peptide exchange yield of 50 to 75%.

GLVDGRDLVIV [GLVDGRDLVIV (SEQ ID NO: 21)] came in with a peptide exchange yield of 50 to 75%.

Molecule VLISGVVHEI [VLISGVVHEI (SEQ ID NO: 146)] gave a peptide exchange yield of 50 to 75%.

KLDSSGGAVQL [KLDSSGGAVQL (SEQ ID NO: 23)] displayed a peptide exchange yield of 20 to 50%.

Take FLIEEQKIVV [FLIEEQKIVV (SEQ ID NO: 131)]: the peptide exchange yield fell in the range of 50 to 75%.

As for ALLEPEFILKA [ALLEPEFILKA (SEQ ID NO: 152)], the peptide exchange yield is at least 75%.

On to KVADLVLML [KVADLVLML (SEQ ID NO: 154)], for which the peptide exchange yield was 50 to 75%.

Take SLIEKYFSV [SLIEKYFSV (SEQ ID NO: 158)]: the peptide exchange yield is at least 75%.

SLYTALTEA [SLYTALTEA (SEQ ID NO: 26)] had a peptide exchange yield of 50 to 75%.

Consider FLFGEEPSKL [FLFGEEPSKL (SEQ ID NO: 130)], for which the peptide exchange yield lay within 50 to 75%.

On to TTFPRPVTV [TTFPRPVTV (SEQ ID NO: 145)], for which the peptide exchange yield is 50 to 75%.

With FILANEHNV [FILANEHNV (SEQ ID NO: 15)], the peptide exchange yield lay within 50 to 75%.

TLLAHPVTL [TLLAHPVTL (SEQ ID NO: 27)] yielded a peptide exchange yield of 50 to 75%.

Regarding TAVALLRLL [TAVALLRLL (SEQ ID NO: 144)], the peptide exchange yield was in the range of 20 to 50%.

Take SLLNPPETLNL [SLLNPPETLNL (SEQ ID NO: 140)]: the peptide exchange yield was 50 to 75%.

The molecule GLIDYDTGIRL [GLIDYDTGIRL (SEQ ID NO: 17)] gave a peptide exchange yield of 50 to 75%.

As to LLLPPPPCPA [LLLPPPPCPA (SEQ ID NO: 156)], the peptide exchange yield fell in the range of 50 to 75%.

As to LINPNIATV [LINPNIATV (SEQ ID NO: 25)], the peptide exchange yield is 20 to 50%.

In turn, VLLPDERTISL [VLLPDERTISL (SEQ ID NO: 160)] came in with a peptide exchange yield of at least 75%.

In turn, KLFPGFEIETV [KLFPGFEIETV (SEQ ID NO: 136)] registered a peptide exchange yield of at least 75%.

In turn, LLLDPDTAVLKL [LLLDPDTAVLKL (SEQ ID NO: 155)] registered a peptide exchange yield of 50 to 75%.

For the molecule ALWHDAENQTVV [ALWHDAENQTVV (SEQ ID NO: 19)], the peptide exchange yield is 50 to 75%.

On to NIFPNPEATFV [NIFPNPEATFV (SEQ ID NO: 138)], for which the peptide exchange yield was 50 to 75%.

As to ILGTEDLIVEV [ILGTEDLIVEV (SEQ ID NO: 149)], the peptide exchange yield is 50 to 75%.

Consider YLPDIIKDQKA [YLPDIIKDQKA (SEQ ID NO: 161)], for which the peptide exchange yield was 50 to 75%.

As for KLGPEGELL [KLGPEGELL (SEQ ID NO: 137)], the peptide exchange yield was in the range of 50 to 75%.

On to ALFQPHLINV [ALFQPHLINV (SEQ ID NO: 150)], for which the peptide exchange yield was at least 75%.

Take ALPKEDPTAV [ALPKEDPTAV (SEQ ID NO: 153)]: the peptide exchange yield lay within 50 to 75%.

FIDSSNPGL [FIDSSNPGL (SEQ ID NO: 13)] registered a peptide exchange yield of 20 to 50%.

YAFPKAVSV [YAFPKAVSV (SEQ ID NO: 147)] showed a peptide exchange yield of 20 to 50%.

Molecule MLLEIPYMAA [MLLEIPYMAA (SEQ ID NO: 157)] had a peptide exchange yield of 50 to 75%.

Regarding ALFVRLLAL [ALFVRLLAL (SEQ ID NO: 18)], the peptide exchange yield was in the range of 20 to 50%.

For ILLAEGRLVNL [ILLAEGRLVNL (SEQ ID NO: 134)], the peptide exchange yield was 50 to 75%.

As to ALLDIIRSL [ALLDIIRSL (SEQ ID NO: 151)], the peptide exchange yield was at least 75%.

In turn, KLDDTYIKA [KLDDTYIKA (SEQ ID NO: 135)] yielded a peptide exchange yield of 50 to 75%.

ILSTEIFGV [ILSTEIFGV (SEQ ID NO: 22)] registered a peptide exchange yield of 50 to 75%.

For the molecule YILPFSEVL [YILPFSEVL (SEQ ID NO: 29)], the peptide exchange yield was at least 75%.

In the case of FGYDGDFYRA [FGYDGDFYRA (SEQ ID NO: 2)], the peptide exchange yield fell in the range of 50 to 75%.

SLYGYLRGA [SLYGYLRGA (SEQ ID NO: 142)] came in with a peptide exchange yield of 50 to 75%.

GLIDYDTGI [GLIDYDTGI (SEQ ID NO: 16)] had a peptide exchange yield of 50 to 75%.

Molecule YLHNQGIGV [YLHNQGIGV (SEQ ID NO: 148)] showed a peptide exchange yield of 20 to 50%.

Molecule SIDRNPPQL [SIDRNPPQL (SEQ ID NO: 139)] registered a peptide exchange yield of 50 to 75%.

Molecule FLWAGGRASYGV [FLWAGGRASYGV (SEQ ID NO: 132)] showed a peptide exchange yield of 50 to 75%.

Regarding ILDDVSLTHL [ILDDVSLTHL (SEQ ID NO: 133)], the peptide exchange yield lay in the range of 20 to 50%.

As to GLIDIENPNRV [GLIDIENPNRV (SEQ ID NO: 20)], the peptide exchange yield fell in the range of 50 to 75%.
